Laboratory results from paper PMC4757414, “Evidences of Changes in Surface Electrostatic Charge Distribution during Stabilization of HPV16 Virus-Like Particles” (PLoS ONE, 2016).

Target: the molecule itself
Test: static light scattering; Debye plot (Zimm equation) of purified HPV16 VLPs in dilute solution, initial (0 h) and final (48 h) states; T = 298 K; 0.5 M NaCl, 50 mM sodium citrate, 1 mM CaCl2, pH 6

B1: HPV16 L1 protein (assembled into HPV16 virus-like particles) (natural protein)
chain: MSLWLPSEATVYLPPVPVSKVVSTDEYVARTNIYYHAGTSRLLAVGHPYFPIKKPNNNKILVPKVSGLQYRVFRIHLPDPNKFGFPDTSFYNPDTQRLVWACVGVEVGRGQPLGVGISGHPLLNKLDDTENASAYAANAGVDNRECISMDYKQTQLCLIGCKPPIGEHWGKGSPCTNVAVNPGDCPPLELINTVIQDGDMVDTGFGAMDFTTLQANKSEVPLDICTSICKYPDYIKMVSEPYGDSLFFYLRREQMFVRHLFNRAGAVGENVPDDLYIKGSGSTANLASSNYFPTPSGSMVTSDAQIFNKPYWLQRAQGHNNGICWGNQLFVTVVDTTRSTNMSLCAAISTSETTYKNTNFKEYLRHGEEYDLQFIFQLCKITLTADVMTYIHSMNSTILEDWNFGLQPPPGGTLEDTYRFVTSQAIACQKHTPPAPKEDPLKKYTFWEVNLKEKFSADLDQFPLGRKFLLQAGLKAKPKFTLGKRKATPTTSSTSTTAKRKKRKL
notes: major capsid protein L1 (~55 kDa) of human papillomavirus type 16; also called HPV L1; HPV16 VLPs; source: insect cells infected with HPV L1 expressing baculovirus, purified (chromatography and filtration, at least 95% purity); provided by Sino Biological, Inc
- binding result: binds
